To fix the notation:
B1: MHAS2168 (natural protein, Mycobacterium hassiacum)
chain: MSAFPQTPNRLIRPRRTSRGIAISAGGLAVLLGALDTYVVVSIVTDIMRDVGIAVNQIQRVTPIITGYLLGYIAAMPLLGRASDRFGRKLLIQISLAGFALGSVITALATNLDVLVAGRVIQGAASGALLPVTLALAADLWATHKRAAVLGGVGAAQELGAVLGPIYGIFVVWLFHHWQAVFWVNVPLALIAMVLIHISLPPRVRTEEPQRVDVTGGLLLALALGLATIGLYNAEPDGKQVLPEYGPPLIIGAVIAAVAFLVWERFARTRLLDPAGVRFRPFLIALLVSLVTGGALMVTLVNVELFGQGVLGLDQDEAVFLLARFLIALPVGALLGGWIATRVGDRAVTAVGLLIAAGGFYLIAQWPADVLESRHDLGFVSLPTLDTDLAIAGFGLGLVIAPLTSAALRVVPAAQHGIASAAVVVARMIGMLIGIAALSAWGLYRFNQYLKEQLAALPPAPADFPGGQMAGQMMRLRTATVQAYVLQYGEIFAITAGLCVFGAVLGLFIAGRREHAEESADAVDGVSNARDRAPSA
notes: C-terminal fusion: 3C protease cleavage site, GFP, His10; residues of the 3C site may be left after cleavage; also called Rv1410 homologue from Mycobacterium hassiacum; MHAS2168^OUT; not shown: GFP, C-terminal, cleaved; His10, C-terminal, cleaved

Test [1] has as its target T1, megabody H2 (Mb_H2) ( | alpaca).
T1 construct: the first thirteen N-terminal residues that form the β-strand A of a nanobody, encoded by the vector pBXMBQ; not shown: His10, C-terminal, cleaved
Kind of test: cryo-EM structure. The settings on record: both partners purified.

Test [2] concerns the target B1. Kind of test: crystal structure; […]) at 20 °C; […]. The settings on record: both partners purified.

Take B1: in test [1], the binding result was “binds”.

B2: nanobody H2 (Nb_H2) (VHH)
VHH: QGQLVESGGGLVQPGGSLRLSCADAGSIFNKFPMAWYRQAPGKERELVARISSGGSTNYADFVKGRFTISRDNAKSTLYLQMNSLKPEDTAMYYCARIINSASNIAYWGQGTRVTVSA
notes: alpaca-derived nanobody selected by phage display against MHAS2168; they are in PDB 8PNL chain B (and chain D); MBP and His-tag removed with 3C protease; not shown: His10, N-terminal, cleaved
For the molecule B2, the binding result in test [2] is “binds”.

Source of the values: publication PMC10576003 (Nature Communications, 2023).
